Measured values reported in publication PMC6332214, “A 7-Deazaadenosylaziridine Cofactor for Sequence-Specific Labeling of DNA by the DNA Cytosine-C5 Methyltransferase M.HhaI”.

Biological target: T1, M.HhaI (DNA cytosine-C5 methyltransferase) (Haemophilus haemolyticus, UniProt P05102 1-327)
T1 sequence: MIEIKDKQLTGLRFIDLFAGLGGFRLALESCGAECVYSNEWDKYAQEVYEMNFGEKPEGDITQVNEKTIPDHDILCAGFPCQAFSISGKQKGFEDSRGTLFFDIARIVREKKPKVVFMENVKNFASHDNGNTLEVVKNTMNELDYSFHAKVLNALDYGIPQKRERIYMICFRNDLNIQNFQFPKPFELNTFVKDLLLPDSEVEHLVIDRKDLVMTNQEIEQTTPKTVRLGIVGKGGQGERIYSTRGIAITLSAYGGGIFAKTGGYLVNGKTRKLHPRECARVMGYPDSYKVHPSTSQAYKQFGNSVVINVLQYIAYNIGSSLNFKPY
Test: anion-exchange HPLC; complex of M.HhaI with coupling product; 80 uM cofactor 5, 10 uM duplex, 11 uM M.HhaI, 37 C 3 h; stable to chromatography, released at 65 C; 10 mM Tris-HCl pH 7.4, 50 mM NaCl, 0.05 mM EDTA, 2 mM beta-mercaptoethanol, 37 C; anion-exchange HPLC (Poros 10 HQ) in KCl gradient 0.2-1 M
Settings: label: biotin (via cofactor 5); blunt

B1: duplex ODN I5·II (coupling product with aziridine cofactor 5) (dsDNA)
DNA 1: TGTCAGCGCATGA
DNA 2: TCATGCGCTGACA
modifications: target C (position 7 of strand I) alkylated with 7-deazaadenosylaziridine-biotin cofactor 5; 5-methyl-dC at position 6 of strand II
Does B1 bind?
Result: binds
